The values below come from patent publication US20250270295A1 (ALBERT LUDWIGS UNIVERSITAET FREIBURG, published 2025).

B1: soluble gp34 ectodomain W65F, V5-His tagged (sgp34mtrp-V5-His) (receptor)
chain: SSSNAVEPTKKPLKLANYRATCEDRTRTLVTRLNTSHHSVVFQRYDIYSRYMRRMPPLCIITDAYKETTRQGGAAFACTRQNLTLYNLTVKDTGVYLLQDQYTGDVEAFYLIIHPRSFCRALETRRCFYPGPGRVVVTDSQEADRAIISDLKRQWSGKPIPNPLLGLDSTRTGHHHHHH
notes: signal peptide 1-23 left out; V5 and His tags are in the entry; Forms only monomers and dimers; also called sol gp34mtrp; gp34 1-179 W65F

Test [1] has as its target T1, C-reactive protein (human, UniProt P02741 19-224).
T1 construct: also called CRP; human CRP
T1 sequence: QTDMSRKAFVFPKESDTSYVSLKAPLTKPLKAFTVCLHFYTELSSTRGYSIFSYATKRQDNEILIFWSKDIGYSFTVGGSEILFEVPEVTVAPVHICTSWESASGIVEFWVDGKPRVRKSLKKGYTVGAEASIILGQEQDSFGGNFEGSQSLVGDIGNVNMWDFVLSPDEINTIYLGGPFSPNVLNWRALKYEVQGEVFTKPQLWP
As to the kind of experiment: ELISA, CRP beside IgG1 and IgA. Background: ELISA stands for enzyme-linked immunosorbent assay.

In test [2] the target is B1. Put plainly: ELISA mtrp.
In test [3] the target is T2, soluble gp34 wild type ectodomain, V5-His tagged (sgp34wt-V5-His) (HCMV strain AD169).
T2 construct: Entry holds signal peptide 1-23 (left out), ectodomain, V5 tag and His tag; Forms monomers, dimers and higher oligomers; also called sol gp34 wt; gp34 1-179
T2 chain: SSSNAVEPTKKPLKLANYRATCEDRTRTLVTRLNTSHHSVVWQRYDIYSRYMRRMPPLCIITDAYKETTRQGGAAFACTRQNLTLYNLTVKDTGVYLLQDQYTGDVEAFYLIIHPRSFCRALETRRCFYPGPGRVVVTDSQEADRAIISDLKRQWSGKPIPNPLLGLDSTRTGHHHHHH
As to the kind of experiment: sgp34wt pre-incubated with mAb, ELISA on CRP.
From the text: In addition, binding of sgp34wt to immobilized CRP in absence of any mAb is depicted.

Test [4] has as its target T2, soluble gp34 wild type ectodomain, …. As to the kind of experiment: blocking of sgp34wt binding to immobilized human IgG, ELISA.
Method: FIG. 44: IgG blocking ability by anti-gp34mtrp mAbs. vFcγR gp34 is an HCMV encoded IgG-Fc-binding. Anti-gp34mtrp-specific mAbs (in titration) were pre-incubated with recombinant, sgp34wt (constant amount 1 μg/ml) and added to IgG-immobilized ELISA plates. […] Dose-dependent potential of mAbs used for blocking is indicated. Effect by non-specific mouse IgG isotype IgG1 is shown. In addition, binding of sgp34wt to immobilized IgG in absence of any mAb is depicted.
To test if anti-gp34wt specific mAbs can interfere with IgG-binding ability of gp34 and human IgG. Therefore, recombinant, sgp34wt was pre-incubated with indicated anti-gp34wt specific mAbs, mouse IgG isotype or PBS only. Next, antibody bound sgp34wt was incubated on IgG-immobilized ELISA plates.
Anti-gp34wt-specific mAbs (in titration) were pre-incubated with recombinant, sgp34wt (constant amount 1 μg/ml) and added to IgG-immobilized ELISA plates. […] Dose-dependent potential of mAbs used for blocking is indicated. […] In addition, binding of sgp34wt to immobilized IgG in absence of any mAb is depicted.
Test [5] has as its target T3, gp34mtrp (W65F) on stably transduced HeLa cells (HCMV strain AD169, UniProt P16809 24-234).
T3 construct: whole, on cells; also called plasma membrane exposed gp34mtrp
T3 sequence: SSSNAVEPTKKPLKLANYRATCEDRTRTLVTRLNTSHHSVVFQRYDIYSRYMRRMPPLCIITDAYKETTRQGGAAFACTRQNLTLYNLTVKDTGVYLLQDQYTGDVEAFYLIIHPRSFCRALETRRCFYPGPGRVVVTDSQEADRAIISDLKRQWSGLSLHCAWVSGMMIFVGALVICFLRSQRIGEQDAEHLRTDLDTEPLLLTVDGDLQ
Put plainly: flow cytometry, HeLa, 1 µg/ml. Background: In flow cytometry, cells or beads pass a laser one at a time.

The target in test [6] is T4, gp34wt on stably transduced HeLa cells (HCMV strain AD169, UniProt P16809 24-234).
T4 construct: whole, on cells; also called plasma membrane exposed gp34wt
T4 sequence: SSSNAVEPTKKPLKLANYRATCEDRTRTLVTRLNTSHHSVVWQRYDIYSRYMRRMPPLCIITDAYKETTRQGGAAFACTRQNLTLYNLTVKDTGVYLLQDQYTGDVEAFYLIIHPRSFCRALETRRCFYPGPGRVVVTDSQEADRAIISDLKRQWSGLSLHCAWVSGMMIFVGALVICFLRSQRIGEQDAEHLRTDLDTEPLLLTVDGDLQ
As to the kind of experiment: flow cytometry, HeLa, 1 µg/ml.

For test [7], the target named is T2, soluble gp34 wild type ectodomain, …. As to the kind of experiment: sgp34wt pre-incubated with mAb, ELISA on FcRn.
Method: Furthermore, the gp34wt and FcRn interaction was investigated whereby various anti-gp34 mAbs were analyzed and their potential to block this interaction was identified. Experiments were performed as described before for IgG-blocking ELISA, but this time using immobilized FcRn as a novel gp34-ligand.
In addition, binding of sgp34wt to immobilized FcRn in absence of any mAb is depicted.

Some results are limits rather than exact numbers.

Consider B1, for which the binding result in test [1] is listed as “binds”.

B2: gp34mtrp.01 (antibody, V domains shown)
VH: QVKLEESGAELVKPGASVKLSCTGSGFNIKDIYMDWVKQRPEQGLEWIGRIDPANGNSKYDPKFQGKATITVDTSSNTAYLQLSSLTSEDTAVYYCASYYGSSYNYWGQGTTLTVSS
VL: DIVITQTPPSVPVTPGESVSISCRSSKSLLHSNGNTYLYWFLQRPGQSPQLLIYRMSNLASGVPDRFSGSGSGTAFTLRISRVEAEDVGVYYCMQHLEYPLTFGAGTKLELKRADAAPTVS
notes: mouse IgG1 hybridoma mAb; leader in entries; also called anti gp34 clone mtrp.01
On to B2, for which the binding result in test [2], in test [5] and in test [6] was “binds” throughout. Besides, the “percent blocking of gp34-CRP-binding” value in test [3] was approximately 50%. In test [4], this molecule returned a concentration for half-maximal inhibition (IC50) of 0.239 µg/mL. Moreover, the “percent blocking of gp34 FcRn-binding” value in test [7] is not above 50%.

B3: gp34mtrp.02 (antibody, V domains shown)
VH: QVKLEQSGAELVKPGASVKLSCTGSGFNIKDIYMDWVKQRPEQGLEWIGRIDPANGNSKYDPKFQGKATITVDTSSNTAYLQLSSLTSEDTAVYYCASYYGSSYNYWGQGTTLTVSS
VL: DIVITQTPPSVPVTPGESVSISCRSSKSLLHSNGNTYLYWFLQRPGQSPQLLIYRMSNLASGVPDRFSGSGSGTAFTLRISRVEAEDVGVYYCMQHLEYPLTFGAGTKLELKRADAAPTVS
notes: mouse IgG1 hybridoma mAb; leader in entries; also called anti gp34 clone mtrp.02
With B3, the binding result in test [2], in test [5] and in test [6] was “binds” each time. Moreover, the “percent blocking of gp34-CRP-binding” value in test [3] is approximately 50%. In test [4], the concentration for half-maximal inhibition (IC50) was 0.33 µg/mL. The “percent blocking of gp34 FcRn-binding” value in test [7] was not above 50%.

By IC50 is commonly meant the concentration needed to halve the response being measured. The low end stands for inhibition by little substance, the high end for a need for much substance.
